Assay results taken from FireProtDB (doi:10.1021/bi00146a008).

B1: Lysozyme C, P61626 (parent)
chain: MKALIVLGLVLLSVTVQGKVFERCELARTLKRLGMDGYRGISLANWMCLAKWESGYNTRATNYNAGDRSTDYGIFQINSRYWCNDGKTPGAVNACHLSCSALLQDNIADAVACAKRVVRDPQGIRAWVAWRNRCQNRDVRQYVQGCGV

Variants of: B1
Conditions: Homo sapiens, pH 2.8, Thermal, DSC, glycine-HCl 50 mM, reversible: yes, structure 1LZ1, whole UniProt chain shown

Variant | ddG of mutation (higher = less stable) (68.8 °C) [kcal/mol] | heat capacity change of unfolding (68.8 °C) [kcal/mol/K] | unfolding enthalpy (calorimetric) (68.8 °C) [kcal/mol] | Tm [°C] | change of melting temperature, mutant - wild type (higher = more stable) [°C] | heat capacity change of unfolding [kcal/mol/K]
P89G | 1.6 | 1.58 | 121 | 64.1 | -4.7 | 1.58
D109P | 0.4 | 1.57 | 115 | 67.7 | -1.1 | 1.57
A65P | -0.1 | 1.56 | 119 | 69.1 | 0.3 | 1.56
P89G P121G | 1.6 | 1.58 | 120 | 64.3 | -4.5 | 1.58
V128P | -0.5 | 1.57 | 120 | 70 | 1.2 | 1.57
P121G | 0.1 | 1.58 | 120 | 68.7 | -0.1 | 1.58
